Article PMC5430875

Biological target: cynomolgus monkey FcRn (cynomolgus monkey) (UniProt Q8SPV9)
Test: SPR; Biacore T200, pH 6.0; antibody and FcRn; who was immobilised is not told (details in Supplementary Information)

UniProt Q8SPV9, sequence (Q8SPV9 24-365): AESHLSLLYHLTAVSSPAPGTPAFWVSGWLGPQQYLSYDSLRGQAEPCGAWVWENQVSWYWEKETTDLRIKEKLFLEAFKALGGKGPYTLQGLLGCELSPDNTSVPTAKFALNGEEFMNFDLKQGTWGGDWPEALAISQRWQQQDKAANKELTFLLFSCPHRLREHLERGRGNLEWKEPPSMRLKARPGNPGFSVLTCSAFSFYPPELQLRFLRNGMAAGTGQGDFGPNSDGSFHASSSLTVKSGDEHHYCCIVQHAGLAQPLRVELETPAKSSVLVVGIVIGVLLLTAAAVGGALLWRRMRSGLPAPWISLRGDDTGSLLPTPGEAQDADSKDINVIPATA

Kd: 1.98 µM
Substance: trastuzumab (antibody)
